Sequences and labels used below:
T1: human CD20 (human, UniProt P11836 1-297)
T1 sequence (looked up): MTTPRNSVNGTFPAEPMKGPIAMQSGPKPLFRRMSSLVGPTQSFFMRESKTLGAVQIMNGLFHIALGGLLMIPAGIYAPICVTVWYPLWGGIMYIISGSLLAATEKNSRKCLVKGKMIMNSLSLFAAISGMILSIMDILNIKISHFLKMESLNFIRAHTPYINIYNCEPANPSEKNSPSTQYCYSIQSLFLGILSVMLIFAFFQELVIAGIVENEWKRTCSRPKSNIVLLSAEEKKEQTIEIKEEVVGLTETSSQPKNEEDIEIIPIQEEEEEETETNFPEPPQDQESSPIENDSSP

B1: mAb 1.13.2 (antibody, human IgG1, V domains shown)
VH: EVQLVQSGAEVKKPGESLKISCKGSGYSFTNYWIGWVRQMPGKGLEWMGIIYPGDSDTRYSPSFQGQVTISADKSISTAYLQWSSLKASDTAMYYCARQGDYYHYSGMDVWGQGTTVTVSS
VL: DVVMTQSPLSLSVTLGQPASISCRSSQSLVYNDGDTYLNWFQQRPGQSPRLLIYKVSNWDSGVPDRFSGSGSGTDFTLKVSRVEAEDVGVYYCMQGTHWPLTFGGGTKVEIK
notes: Human IgG1 kappa; also called 1.13.1; 50-001H1_13_1
B2: mAb 1.6.2 (antibody, human IgG1, V domains shown)
VH: B1 VH with N31S, Q99H, Y103S, H104N, Y105I, S106D, G107A, M108F, V110I, T116M
VL: DVVMTQSPLSLPVTLGQPASISCRSSQSLVYSDGNAYLNWFQQRPGQSPRRLIYKVSNWDSGVPDRFSGSGSGTDFTLKIRRVEAEDVGAYYCMQGIHCTFGPGTKVHIK
B3: mAb 1.12.3 (antibody, human IgG1, V domains shown)
VH: EVQLVQSGAEVKKPGESLKISCKGSGYSFTSYWIGWVRQMSGKGLEWMGIIYPGDSDTRYSPSFQGQVTISADKSISTAYLQWSSLKASDTAIYYCARHPSYGSGSPNFDYWGQGTLVTVSS
VL: DIVMTQTPLSSPVTLGQPASISCRSSQSLVYSDGNTYLSWLQQRPGQPPRLLFYKISNRFSGVPDRFSGSGAGTDFTLKISRVEAEDVGVYYCVQATQFPLTFGGGTKVEIK
B4: mAb 2.2.2 (antibody, human IgG1, V domains shown)
VH: EVQLVQSGAEVKKPGESLKISCKGSGYSFTSYWIGWVRQMPGKGLEWMGIIYPGDSDTKYSPSFQGQVTISADKSISTAYLQWSSLKASDTAMYYCARQGDFWSGNGGMDVWGQGTTVTVSS
VL: B3 VL with Y31S, S32R, F53I, A85V, V94M, L101I, G105Q, K108R, V109L
B5: mAb 1.4.3 (antibody, human IgG1, V domains shown)
VH: B3 VH with S41P, S77T, I93M
VL: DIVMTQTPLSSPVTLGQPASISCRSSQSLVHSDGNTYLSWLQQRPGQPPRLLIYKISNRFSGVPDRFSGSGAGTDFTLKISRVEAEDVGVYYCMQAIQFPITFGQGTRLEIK
B6: mAb 1.9.2 (antibody, human IgG1, V domains shown)
VH: B4 VH with K59R, Q99H, N106Y, G107Y, G108S, M109F, V111Y, T117L
VL: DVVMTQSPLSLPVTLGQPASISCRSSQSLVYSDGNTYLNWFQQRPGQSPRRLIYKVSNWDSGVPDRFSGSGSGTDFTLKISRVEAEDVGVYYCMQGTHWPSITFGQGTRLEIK
B7: mAb 2.4.1 (antibody, human IgG1, V domains shown)
VH: EVQLVQSGAEVKKPGESLKISCKGSGYSFTNYWIGWVRQMPGKGLEWMGIIYPGDSDTRYSPSFQGQVTISADKSISTAYLQWSSLKASDTAMYYCARHGDYYASESSAFDIWGQGTMVTVSS
VL: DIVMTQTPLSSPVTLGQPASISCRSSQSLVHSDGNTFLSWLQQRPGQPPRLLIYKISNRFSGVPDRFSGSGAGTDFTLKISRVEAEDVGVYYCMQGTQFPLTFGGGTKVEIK
B8: mAb 1.10.3.1 (antibody, human IgG1, V domains shown)
VH: EVQLVQSGAEVKKPGESLKISCKGSGYSFTSYWIGWVRQMPGKGLEWMGIIYPGDSDTRYSPSFQGQVTISADKSISTAYLQWSSLKASDTAMYYCARMGDFWSGYYTRGMDVWGQGTTVTVSS
VL: EIVMTQSPATLSVSPGERATLSCRASQSVSSNLAWYQQKPGQAPRLLISGASTRATGIPARFSGSGSGTEFTLTISSLQSEDFAVYYCHQYNDWSLTFGGGTKVEIK
notes: Human IgG1 kappa; also called 50-001H1_10_3_1

Residue numbers refer to the chain shown, from its start. Where only a bound is given, the exact number is not on record here.

One test concerns the target T1, human CD20. The test is described as follows: cell-based or functional assay.
In the case of B1, the “% Lysis Daudi 0.001 µg/ml ADCC” value came out at 24%, the “% Lysis Daudi 1 µg/ml ADCC” value worked out at 74%, the “% Lysis Raji 0.001 µg/ml ADCC” value was found to be 5% and the “% Lysis Raji 1 µg/ml ADCC” value is 21%. Moreover, the “% Lysis Ramos 0.001 µg/ml ADCC” value stood at 4%, the “% Lysis Ramos 1 µg/ml ADCC” value turned out to be 33%, the “EC50 µg/ml Daudi CDC” value was approximately 10 µg/mL and the “EC50 µg/ml Raji CDC” value is 3.54 µg/mL. In addition, the “EC50 µg/ml Ramos Apoptosis Alamar Blue” value worked out at 0.291 µg/mL, the “EC50 µg/ml Ramos Apoptosis Annexin V” value worked out at 2.97 µg/mL, the “EC50 µg/ml Ramos Apoptosis Cell Titer Glo” value was 1.44 µg/mL and the “EC50 µg/ml Ramos Apoptosis WST-1” value stood at 0.096 µg/mL. Besides, the “EC50 µg/ml Ramos CDC” value is 6.82 µg/mL.
On to B2, for which the “% Lysis Daudi 0.001 µg/ml ADCC” value turned out to be 77%, the “% Lysis Daudi 1 µg/ml ADCC” value came out at 79%, the “% Lysis Raji 0.001 µg/ml ADCC” value was found to be 5% and the “% Lysis Raji 1 µg/ml ADCC” value was 36%. In addition, the “% Lysis Ramos 0.001 µg/ml ADCC” value was determined as 3%, the “% Lysis Ramos 1 µg/ml ADCC” value amounted to 43%, the “EC50 µg/ml Daudi CDC” value was approximately 10 µg/mL and the “EC50 µg/ml Raji CDC” value was 0.38 µg/mL. In addition, the “EC50 µg/ml Ramos Apoptosis Alamar Blue” value came out at 0.16 µg/mL, the “EC50 µg/ml Ramos Apoptosis Annexin V” value came out at 0.67 µg/mL, the “EC50 µg/ml Ramos Apoptosis Cell Titer Glo” value amounted to 0.476 µg/mL and the “EC50 µg/ml Ramos Apoptosis WST-1” value stood at 0.0393 µg/mL. In addition, the “EC50 µg/ml Ramos CDC” value stood at 0.31 µg/mL.
In the case of B3, the “% Lysis Daudi 0.001 µg/ml ADCC” value turned out to be 17%, the “% Lysis Daudi 1 µg/ml ADCC” value stood at 63%, the “% Lysis Raji 0.001 µg/ml ADCC” value was 3% and the “% Lysis Raji 1 µg/ml ADCC” value worked out at 10%. In addition, the “% Lysis Ramos 0.001 µg/ml ADCC” value was determined as 2%, the “% Lysis Ramos 1 µg/ml ADCC” value was found to be 29%, the “EC50 µg/ml Daudi CDC” value is 9.39 µg/mL and the “EC50 µg/ml Raji CDC” value was found to be 1.31 µg/mL. In addition, the “EC50 µg/ml Ramos Apoptosis Alamar Blue” value was 0.026 µg/mL, the “EC50 µg/ml Ramos Apoptosis Annexin V” value was found to be 0.191 µg/mL, the “EC50 µg/ml Ramos Apoptosis Cell Titer Glo” value was determined as 0.0989 µg/mL and the “EC50 µg/ml Ramos Apoptosis WST-1” value is 0.0383 µg/mL. Further, the “EC50 µg/ml Ramos CDC” value amounted to 2.07 µg/mL.
B4: the “% Lysis Daudi 0.001 µg/ml ADCC” value was determined as 60%, the “% Lysis Daudi 1 µg/ml ADCC” value came out at 79%, the “% Lysis Raji 0.001 µg/ml ADCC” value worked out at 7% and the “% Lysis Raji 1 µg/ml ADCC” value worked out at 44%. Besides, the “% Lysis Ramos 0.001 µg/ml ADCC” value was 12%, the “% Lysis Ramos 1 µg/ml ADCC” value is 65%, the “EC50 µg/ml Daudi CDC” value was 1.66 µg/mL and the “EC50 µg/ml Raji CDC” value came to 0.5 µg/mL. Moreover, the “EC50 µg/ml Ramos Apoptosis Alamar Blue” value was found to be 0.0207 µg/mL, the “EC50 µg/ml Ramos Apoptosis Annexin V” value was 0.373 µg/mL, the “EC50 µg/ml Ramos Apoptosis Cell Titer Glo” value stood at 0.139 µg/mL and the “EC50 µg/ml Ramos Apoptosis WST-1” value stood at 0.00076 µg/mL. Besides, the “EC50 µg/ml Ramos CDC” value was found to be 1.03 µg/mL.
As for B5, the “% Lysis Daudi 0.001 µg/ml ADCC” value turned out to be 62%, the “% Lysis Daudi 1 µg/ml ADCC” value was 72%, the “% Lysis Raji 0.001 µg/ml ADCC” value amounted to 7% and the “% Lysis Raji 1 µg/ml ADCC” value amounted to 37%. Moreover, the “% Lysis Ramos 0.001 µg/ml ADCC” value worked out at 4%, the “% Lysis Ramos 1 µg/ml ADCC” value was 52%, the “EC50 µg/ml Daudi CDC” value was approximately 10 µg/mL and the “EC50 µg/ml Raji CDC” value was found to be 1.3 µg/mL. Also, the “EC50 µg/ml Ramos Apoptosis Alamar Blue” value was 0.11 µg/mL, the “EC50 µg/ml Ramos Apoptosis Annexin V” value was determined as 2.86 µg/mL, the “EC50 µg/ml Ramos Apoptosis Cell Titer Glo” value was determined as 0.342 µg/mL and the “EC50 µg/ml Ramos Apoptosis WST-1” value is 0.0514 µg/mL. Also, the “EC50 µg/ml Ramos CDC” value stood at 13.1 µg/mL.
For B6, the “% Lysis Daudi 0.001 µg/ml ADCC” value amounted to 19%, the “% Lysis Daudi 1 µg/ml ADCC” value was determined as 74%, the “% Lysis Raji 0.001 µg/ml ADCC” value turned out to be 5% and the “% Lysis Raji 1 µg/ml ADCC” value amounted to 17%. Besides, the “% Lysis Ramos 0.001 µg/ml ADCC” value worked out at 3%, the “% Lysis Ramos 1 µg/ml ADCC” value was found to be 40%, the “EC50 µg/ml Daudi CDC” value is more than 10 µg/mL and the “EC50 µg/ml Raji CDC” value was found to be 52.9 µg/mL. Besides, the “EC50 µg/ml Ramos Apoptosis Cell Titer Glo” value was 0.528 µg/mL and the “EC50 µg/ml Ramos CDC” value is more than 10 µg/mL.
For B7, the “% Lysis Daudi 0.001 µg/ml ADCC” value was found to be 36%, the “% Lysis Daudi 1 µg/ml ADCC” value is 76%, the “% Lysis Raji 0.001 µg/ml ADCC” value stood at 9% and the “% Lysis Raji 1 µg/ml ADCC” value is 24%. The “% Lysis Ramos 0.001 µg/ml ADCC” value was -3%, the “% Lysis Ramos 1 µg/ml ADCC” value stood at 46%, the “EC50 µg/ml Daudi CDC” value was approximately 10 µg/mL and the “EC50 µg/ml Raji CDC” value amounted to 3.72 µg/mL. In addition, the “EC50 µg/ml Ramos Apoptosis Alamar Blue” value was 0.112 µg/mL, the “EC50 µg/ml Ramos Apoptosis Annexin V” value came to 4.68 µg/mL, the “EC50 µg/ml Ramos Apoptosis Cell Titer Glo” value stood at 0.983 µg/mL and the “EC50 µg/ml Ramos Apoptosis WST-1” value was 0.042 µg/mL. For the same molecule, the “EC50 µg/ml Ramos CDC” value was found to be 3.12 µg/mL.

A further test concerns the target T1, human CD20. The test is described as follows: FACS KD on SB cells expressing CD20 (GMF against mAb concentration, nonlinear fit). As to the method: The affinity of purified antibodies against CD20 (mAbs 1.1.2, 1.2.1, 2.1.2, 1.3.3, 1.5.3, 1.10.3.1, 1.13.2), Rituximab (positive control), and B1 was determined by FACS. Briefly, SB cells expressing CD20 were resuspended in FACS buffer (2% FBS, 0.05% NaN₃) at a concentration of approximately 5 million cells/mL. HSB cells were also resuspended in FACS buffer at a concentration of approximately 9 million cells/mL. Cells were kept on ice. Purified antibodies were serially diluted in filtered 1×PBS (2×) across 11 wells in 96-well plates. The twelfth well in each row contained buffer only. 1×PBS and cells were added to each mAb well such that the final volume was […] and each well contained approximately 375,000 cells. The final molecular concentration ranges for the mAbs were as follows:
Plates were placed on a plate shaker for 3 hours at 4° C., then spun and washed 3× with PBS. 200 μL of 145 nM Cy5 goat α-human polyclonal antibody was added to each well, and 200 μL of 192 nM Cy5 goat α-mouse polyclonal antibody was added to the cells complexed with B1 antibody. Plates were then incubated for 40 minutes at 4° C., then spun and washed 3× with PBS.
The Geometric Mean Fluorescence (GMF) of 10,000 cells for each mAb concentration was determined using a FACSCalibur instrument. No significant nonspecific binding (no significant signal) was apparent from the HSB cells. In each row containing the SB cells, the signal from the twelfth well (containing buffer only) was subtracted from the signal from the first 11 wells. A nonlinear plot of GMF as a function of molecular mAb concentration was fit using Scientist software using the equation: […]
Turning to B8, binding was characterised by a dissociation constant (Kd) of 11.2 nM. That is a double-digit nanomolar value.
As for B1, the Kd is 23.6 nM.

One may read the Kd as a measure of binding affinity in units of concentration. The low end stands for tighter binding, the high end for weaker binding.

The values above are taken from patent publication US20070014720A1 (published 2007).
